Data from article PMC3298081 (Arteriosclerosis, Thrombosis, and Vascular Biology, 2012).

Target: thrombospondin-1 (human, UniProt P07996 19-1170)
Test: ELISA

thrombospondin-1, sequence (P07996 19-1170): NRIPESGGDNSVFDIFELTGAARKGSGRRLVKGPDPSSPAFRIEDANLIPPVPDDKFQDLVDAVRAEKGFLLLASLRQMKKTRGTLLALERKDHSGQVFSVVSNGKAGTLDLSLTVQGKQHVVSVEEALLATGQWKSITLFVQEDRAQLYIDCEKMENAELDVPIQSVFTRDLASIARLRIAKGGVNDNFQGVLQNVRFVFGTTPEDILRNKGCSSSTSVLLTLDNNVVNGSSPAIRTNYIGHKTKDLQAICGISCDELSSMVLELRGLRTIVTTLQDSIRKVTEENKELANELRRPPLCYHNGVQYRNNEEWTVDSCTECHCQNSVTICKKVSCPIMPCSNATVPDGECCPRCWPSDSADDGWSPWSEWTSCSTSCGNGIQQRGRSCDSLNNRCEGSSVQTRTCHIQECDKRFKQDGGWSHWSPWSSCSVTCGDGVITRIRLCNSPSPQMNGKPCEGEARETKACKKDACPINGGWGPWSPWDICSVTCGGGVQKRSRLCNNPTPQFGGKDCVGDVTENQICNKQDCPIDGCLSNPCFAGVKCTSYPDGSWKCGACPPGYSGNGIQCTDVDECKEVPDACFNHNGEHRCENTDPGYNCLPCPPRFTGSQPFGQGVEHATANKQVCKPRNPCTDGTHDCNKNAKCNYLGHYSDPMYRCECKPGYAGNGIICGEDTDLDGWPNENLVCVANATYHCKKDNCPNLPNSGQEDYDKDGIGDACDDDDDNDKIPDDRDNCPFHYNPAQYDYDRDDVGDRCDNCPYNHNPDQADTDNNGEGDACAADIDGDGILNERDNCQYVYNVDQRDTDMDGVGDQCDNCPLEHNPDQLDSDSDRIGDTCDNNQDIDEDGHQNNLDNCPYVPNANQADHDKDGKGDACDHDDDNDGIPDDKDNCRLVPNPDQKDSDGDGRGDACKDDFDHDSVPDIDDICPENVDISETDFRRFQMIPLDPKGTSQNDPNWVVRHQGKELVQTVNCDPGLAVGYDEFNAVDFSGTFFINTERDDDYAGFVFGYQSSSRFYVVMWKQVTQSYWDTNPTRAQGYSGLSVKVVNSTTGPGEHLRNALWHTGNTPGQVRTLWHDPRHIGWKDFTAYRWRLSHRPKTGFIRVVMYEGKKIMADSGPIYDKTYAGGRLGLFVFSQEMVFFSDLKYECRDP

- binding result: binds
Binder: SNIQVKQRGPYTYRVRFLAKENVTQDAEDNTVSFLQPNGA (domain or fragment, human, UniProt P16671 81-120, looked up) [recombinant thioredoxin/extended CD36 CLESH domain fusion protein (non-phosphorylated)]
